# In article PMC2668526 (Bioorganic & medicinal chemistry, 2008):
# Experiments:
# Experiment in all cases: purified protein, by the assay type
# Conditions in all cases: other: O2 consumption, 5.0 mM ascorbate, pH 6.0, 37 °C
# [1] = substrate: O=C(O)CNC(=O)CNC(=O)CNC(=O)c1ccccc1
# [2] = substrate: O=C(O)CNC(=O)CCCCCc1ccccc1
# [3] = substrate: O=C(O)CNC(=O)CCCCCCCc1ccccc1
# [4] = substrate: O=C(O)CNC(=O)c1c(F)cccc1F
# [5] = substrate: O=C(O)CNC(=O)c1ccc(O)cc1
# [6] = substrate: COc1ccc(C(=O)NCC(=O)O)cc1
# [7] = substrate: O=C(O)CNC(=O)c1cccnc1
# [8] = substrate: O=C(O)CNC(=O)c1ccccc1I
# [9] = substrate: O=C(O)CNC(=O)CNC(=O)c1ccccc1
# [10] = substrate: O=C(O)CNC(=O)c1cccs1
# [11] = substrate: O=C(O)CNC(=O)/C=C/c1ccco1
# [12] = substrate: CCc1ccc(C(=O)NCC(=O)O)cc1
# [13] = substrate: O=C(O)CNC(=O)C1CC1c1ccccc1
# [14] = substrate: CC(Cc1ccccc1)C(=O)NCC(=O)O
# [15] = substrate: O=C(O)CNC(=O)SCc1ccccc1
# [16] = substrate: O=C(O)CNC(=O)c1ccco1
# [17] = substrate: O=C(O)CNC(=S)CCc1ccccc1
# [18] = substrate: O=C(O)CNC(=S)Cc1ccccc1
# [19] = substrate: O=C(O)CNC(=O)c1ccc(C(F)(F)F)cc1
# [20] = substrate: CC(C)CCC(=O)NCC(=O)O
protein,measurement,setting,value
rat PAM (Rattus norvegicus) (protein) FKETTRSFSNECLGTIGPVTPLDASDFALDIRMPGVTPKESDTYFCMSMRLPVDEEAFVIDFKPRASMDTVHHMLLFGCNMPSSTGSYWFCDEGTCTDKANILYAWARNAPPTRLPKGVGFRVGGETGSKYFVLQVHYGDISAFRDNHKDCSGVSVHLTRVPQPLIAGMYLMMSVDTVIPPGEKVVNADISCQYKMYPMHVFAYRVHTHHLGKVVSGYRVRNGQWTLIGRQNPQLPQAFYPVEHPVDVTFGDILAARCVFTGEGRTEATHIGGTSSDEMCNLYIMYYMEAKYALSFMTCTKNVAPDMFRTIPAEANIPIPVKPDMVMMHGHHKEAENKEKSALMQQPKQGEEEVLEQDFHVEEELDWPGVYLLPGQVSGVALDSKNNLVIFHRGDHVWDGNSFDSKFVYQQRGLGPIEEDTILVIDPNNAEILQSSGKNLFYLPHGLSIDTDGNYWVTDVALHQVFKLDPHSKEGPLLILGRSMQPGSDQNHFCQPTDVAVEPSTGAVFVSDGYCNSRIVQFSPSGKFVTQWGEESSGSSPRPGQFSVPHSLALVPHLDQLCVADRENGRIQCFKTDTKEFVREIKHASFGRNVFAISYIPGFLFAVNGKPYFGDQEPVQGFVMNFSSGEIIDVFKPVRKHFDMPHDIVASEDGTVYIGDAHTNTVWKFTLTEKMEHRSV,Km,[1],310 ± 60 µM
same,kcat,[1],8.8 ± 1.3 s⁻¹
same,kcat/Km,[1],29000 ± 2000 M⁻¹ s⁻¹
same,Km,[2],0.051 ± 0.007 0.043 ± 0.005 mM
same,kcat,[2],11 ± 0.4 s⁻¹
same,kcat/Km,[2],200000 ± 20000 M⁻¹ s⁻¹
same,Km,[3],0.10 ± 0.009 0.064 ± 0.006 mM
same,kcat,[3],8 ± 0.3 s⁻¹
same,kcat/Km,[3],76000 ± 4000 M⁻¹ s⁻¹
same,Km,[4],19000 ± 4000 µM
same,kcat,[4],4.3 ± 0.6 s⁻¹
same,kcat/Km,[4],230 ± 20 M⁻¹ s⁻¹
same,Km,[5],1700 ± 100 µM
same,kcat,[5],5.8 ± 0.1 s⁻¹
same,kcat/Km,[5],3500 ± 200 M⁻¹ s⁻¹
same,Km,[6],820 ± 40 µM
same,kcat,[6],5.3 ± 0.08 s⁻¹
same,kcat/Km,[6],6400 ± 200 M⁻¹ s⁻¹
same,Km,[7],1900 ± 100 µM
same,kcat,[7],8 ± 0.2 s⁻¹
same,kcat/Km,[7],4200 ± 200 M⁻¹ s⁻¹
same,Km,[8],3400 ± 400 µM
same,kcat,[8],3.1 ± 0.1 s⁻¹
same,kcat/Km,[8],910 ± 70 M⁻¹ s⁻¹
same,Km,[9],78 ± 11 µM
same,kcat,[9],12 ± 0.8 s⁻¹
same,kcat/Km,[9],160000 ± 10000 M⁻¹ s⁻¹
same,Km,[10],1600 ± 100 µM
same,kcat/Km,[10],6000 ± 300 M⁻¹ s⁻¹
same,Km,[11],1200 ± 100 µM
same,kcat,[11],3.4 ± 0.1 s⁻¹
same,kcat/Km,[11],2800 ± 100 M⁻¹ s⁻¹
same,Km,[12],1200 ± 200 µM
same,kcat,[12],3.6 ± 0.3 s⁻¹
same,kcat/Km,[12],3100 ± 500 M⁻¹ s⁻¹
same,Km,[13],900 ± 70 µM
same,kcat,[13],10 ± 0.3 s⁻¹
same,kcat/Km,[13],11000 ± 700 M⁻¹ s⁻¹
same,Km,[14],4100 ± 300 µM
same,kcat,[14],18 ± 0.9 s⁻¹
same,kcat/Km,[14],4300 ± 100 M⁻¹ s⁻¹
same,Km,[15],59 ± 7 µM
same,kcat,[15],0.69 ± 0.022 s⁻¹
same,kcat/Km,[15],12000 ± 1400 M⁻¹ s⁻¹
same,Km,[16],2700 ± 100 µM
same,kcat,[16],7.5 ± 0.07 s⁻¹
same,kcat/Km,[16],2800 ± 100 M⁻¹ s⁻¹
same,Km,[17],0.038 ± 0.02 0.023 ± 0.002 mM
same,kcat,[17],1.6 ± 0.2 s⁻¹
same,kcat/Km,[17],42000 ± 14000 M⁻¹ s⁻¹
same,Km,[18],24 ± 5 µM
same,kcat,[18],2.4 ± 0.2 s⁻¹
same,kcat/Km,[18],100000 ± 20000 M⁻¹ s⁻¹
same,Km,[19],770 ± 100 µM
same,kcat,[19],2.8 ± 0.1 s⁻¹
same,kcat/Km,[19],3600 ± 500 M⁻¹ s⁻¹
same,Km,[20],280 ± 30 µM
same,kcat,[20],6.6 ± 0.3 s⁻¹
same,kcat/Km,[20],23000 ± 2000 M⁻¹ s⁻¹
